Results reported in patent publication US20180311371A1 (Hoffmann-La Roche, published 2018).

Experiments:
[1] = target: T1, human TPBG (trophoblast glycoprotein), full length, cell surface expressed (human, UniProt Q13641 32-420); test: flow cytometry on SW620 clone 4 cells; ratio of MFI; replicate 2
T1 construct: On MCF7, H1975 and BxPC-3 tumour cells, on SW620 clone 4 and on CHO-K1 cells transfected with full length human TPBG; also called huTPBG; 5T4
T1 sequence: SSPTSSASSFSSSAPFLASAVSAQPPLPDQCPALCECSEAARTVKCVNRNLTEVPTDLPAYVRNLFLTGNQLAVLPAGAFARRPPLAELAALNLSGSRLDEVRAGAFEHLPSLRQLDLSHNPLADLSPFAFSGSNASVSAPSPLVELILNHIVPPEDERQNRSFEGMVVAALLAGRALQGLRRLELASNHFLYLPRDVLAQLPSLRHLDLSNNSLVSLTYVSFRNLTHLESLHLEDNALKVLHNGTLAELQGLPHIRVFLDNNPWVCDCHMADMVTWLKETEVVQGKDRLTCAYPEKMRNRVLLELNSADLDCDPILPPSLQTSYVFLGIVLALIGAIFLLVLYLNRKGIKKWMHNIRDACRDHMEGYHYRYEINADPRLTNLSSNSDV

[2] = target: T1, human TPBG (trophoblast glycoprotein), …; test: cell-based or functional assay
[3] = target: T2, recombinant extracellular domain of minipig TPBG (Biacore analyte) (minipig); test: SPR Biacore T200; Fab captured by anti-huFab, minipig TPBG injected
T2 chain: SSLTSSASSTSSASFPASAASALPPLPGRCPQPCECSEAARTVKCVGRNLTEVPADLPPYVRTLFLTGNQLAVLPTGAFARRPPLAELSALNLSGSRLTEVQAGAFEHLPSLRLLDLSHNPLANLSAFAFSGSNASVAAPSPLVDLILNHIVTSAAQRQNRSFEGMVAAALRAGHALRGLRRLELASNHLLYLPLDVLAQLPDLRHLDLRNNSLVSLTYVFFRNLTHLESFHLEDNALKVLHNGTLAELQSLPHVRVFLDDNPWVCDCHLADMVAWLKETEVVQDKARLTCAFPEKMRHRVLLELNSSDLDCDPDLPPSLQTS

[4] = target: T3, huTPBG (recombinant human TPBG immobilised on the Biacore chip) (human, UniProt Q13641 32-355, limits assumed); test: SPR Biacore T200; huTPBG amine-coupled, Fab injected
T3 construct: also called human TPBG antigen
T3 sequence: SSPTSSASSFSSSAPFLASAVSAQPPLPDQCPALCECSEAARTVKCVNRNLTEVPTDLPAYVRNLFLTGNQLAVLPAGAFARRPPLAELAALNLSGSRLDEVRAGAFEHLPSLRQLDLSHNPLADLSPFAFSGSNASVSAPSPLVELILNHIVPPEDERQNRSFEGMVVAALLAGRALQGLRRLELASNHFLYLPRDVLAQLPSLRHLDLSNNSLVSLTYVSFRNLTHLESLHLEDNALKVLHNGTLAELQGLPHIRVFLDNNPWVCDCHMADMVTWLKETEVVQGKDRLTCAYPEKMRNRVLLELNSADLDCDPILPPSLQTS

[5] = target: T4, human TPBG extracellular domain, His6Avi, biotinylated (human, biotinylated); test: ELISA; biotinylated TPBG-AviHis on streptavidin plate; Fab titrated from 2 µg/ml
T4 construct: also called huTPBG; human TPBG-AviHis
T4 chain: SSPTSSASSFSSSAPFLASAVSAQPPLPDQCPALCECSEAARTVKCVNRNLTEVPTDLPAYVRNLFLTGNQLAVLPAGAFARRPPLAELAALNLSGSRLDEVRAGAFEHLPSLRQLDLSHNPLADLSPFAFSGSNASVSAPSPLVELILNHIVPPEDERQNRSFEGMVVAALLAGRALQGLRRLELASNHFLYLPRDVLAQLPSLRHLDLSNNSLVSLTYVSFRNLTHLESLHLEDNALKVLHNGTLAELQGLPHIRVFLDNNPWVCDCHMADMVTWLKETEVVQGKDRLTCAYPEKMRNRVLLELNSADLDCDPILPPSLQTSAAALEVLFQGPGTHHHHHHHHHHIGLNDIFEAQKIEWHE

[6] = target: T5, minipig TPBG extracellular domain, His6Avi, biotinylated (minipig, biotinylated); test: as above
T5 construct: also called mpTPBG; minipig TPBG-AviHis
T5 chain: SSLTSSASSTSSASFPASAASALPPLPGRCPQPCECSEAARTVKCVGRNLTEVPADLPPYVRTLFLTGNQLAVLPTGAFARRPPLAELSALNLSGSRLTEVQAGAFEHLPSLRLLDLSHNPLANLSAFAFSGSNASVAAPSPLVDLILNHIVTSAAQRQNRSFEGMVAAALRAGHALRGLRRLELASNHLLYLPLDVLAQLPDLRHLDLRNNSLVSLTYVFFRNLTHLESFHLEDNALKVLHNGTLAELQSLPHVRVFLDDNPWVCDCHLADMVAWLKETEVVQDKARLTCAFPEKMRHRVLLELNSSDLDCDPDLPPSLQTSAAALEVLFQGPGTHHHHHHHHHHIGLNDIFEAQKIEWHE

[7] = target: T1, human TPBG (trophoblast glycoprotein), …; test: flow cytometry on SW620 clone 4 cells; ratio of MFI; replicate 1
[8] = target: T1, human TPBG (trophoblast glycoprotein), …; test: cell-based or functional assay; remark: listed apart in the source
[9] = target: T1, human TPBG (trophoblast glycoprotein), …; test: cell ELISA on MCF7 cells; titrated from 5 µg/ml
[10] = target: T1, human TPBG (trophoblast glycoprotein), …; test: cell-based or functional assay; remark: listed apart in the source
[11] = target: T1, human TPBG (trophoblast glycoprotein), …; test: cell-based or functional assay; remark: listed apart in the source
[12] = target: T6, minipig TPBG, full length, cell surface expressed on CHO-K1 cells (minipig); test: cell-based or functional assay
T6 chain: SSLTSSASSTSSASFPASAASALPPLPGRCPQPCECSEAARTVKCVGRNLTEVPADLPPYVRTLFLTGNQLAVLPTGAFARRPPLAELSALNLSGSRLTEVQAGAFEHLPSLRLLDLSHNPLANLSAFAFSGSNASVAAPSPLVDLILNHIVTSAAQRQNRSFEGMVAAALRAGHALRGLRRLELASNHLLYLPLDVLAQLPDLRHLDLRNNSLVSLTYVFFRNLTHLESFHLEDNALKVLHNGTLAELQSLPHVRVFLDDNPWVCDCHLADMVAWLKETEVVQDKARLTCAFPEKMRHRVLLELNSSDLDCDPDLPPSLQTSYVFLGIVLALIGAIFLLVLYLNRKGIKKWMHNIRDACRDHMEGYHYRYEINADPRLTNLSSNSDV

[13] = target: T7, minipig TPBG extracellular domain, huIgG1-Fc-His (minipig); test: ELISA; Fc-TPBG coated; mAb titrated from 1 µg/ml
T7 construct: also called Fc-TPBG (mp)

[14] = target: T8, human TPBG extracellular domain, huIgG1-Fc-His6 (human); test: ELISA; Fc-TPBG coated; mAb titrated from 1 µg/ml
T8 construct: also called Fc-TPBG (hu)

B1: anti-TPBG antibody 051, Fab fragment (Fab, V domains shown)
VH: EVQLLESGGGLLQPGGSLRLSCAASGFTFSIYWMTWVRQAPGKGLEWVSAISGSGGSTYYADSVKGRFTISRDNSKNTLYLQMNSLRAEDTAVYYCAKDYYSNVYWGQGTLVTVSS
VL: DIQMTQSPSSVSASVGDRVTITCRASQGIYSWLAWYQQKPGKAPKLLIYAASSLQSGVPSRFSGSGSGTDFTLTISSLQPEDFATYYCQQSDSPPYTFGQGTKLEIK
notes: also called Fab3
Fold change pH 7.2 vs pH 5.5 [1]: 1.1 fold | EC50 cytotoxicity, Fab-PE sandwich construct, MCF7 [2]: 1.35 nM | X-fold higher potency compared to TPBG(H8)PE, MCF7 [2]: 1.1 fold | Kd [3]: 2.05 nM | koff [3]: 0.000193 s⁻¹ | kon [3]: 94000 M⁻¹ s⁻¹ | Kd [4]: 0.16 nM | koff [4]: 7.83e-05 s⁻¹ | kon [4]: 489000 M⁻¹ s⁻¹ | EC50 [5]: 0.0181 µg/mL | EC50 [6]: 0.175 µg/mL | Fold change pH 7.2 vs pH 5.5 [7]: 1.1 fold | EC50 cytotoxicity, Fab-PE sandwich construct, H1975, replicate 1 [8]: 0.522 nM | EC50 cytotoxicity, Fab-PE sandwich construct, H1975, replicate 2 [8]: 0.397 nM | EC50 cytotoxicity, Fab-PE sandwich construct, H1975, replicate 3 [8]: 0.527 nM | EC50 [9]: 0.0575 µg/mL | internalization after 0.5 h, MCF7 cells [10]: 31% | internalization after 1.0 h, MCF7 cells [10]: 55% | internalization after 2.0 h, MCF7 cells [10]: 72% | EC50 cytotoxicity, Fab + anti-kappa-Fab-PE, CHO-K1/human TPBG, replicate 1 [11]: 0.28 nM | EC50 cytotoxicity, Fab + anti-kappa-Fab-PE, CHO-K1/human TPBG, replicate 2 [11]: 0.38 nM | EC50 cytotoxicity, Fab + anti-kappa-Fab-PE, CHO-K1/minipig TPBG, replicate 1 [12]: 6.18 nM | EC50 cytotoxicity, Fab + anti-kappa-Fab-PE, CHO-K1/minipig TPBG, replicate 2 [12]: 5.04 nM

B2: anti-TPBG antibody 051 (mAb) (antibody, V domains shown)
VH: EVQLLESGGGLLQPGGSLRLSCAASGFTFSIYWMTWVRQAPGKGLEWVSAISGSGGSTYYADSVKGRFTISRDNSKNTLYLQMNSLRAEDTAVYYCAKDYYSNVYWGQGTLVTVSS
VL: DIQMTQSPSSVSASVGDRVTITCRASQGIYSWLAWYQQKPGKAPKLLIYAASSLQSGVPSRFSGSGSGTDFTLTISSLQPEDFATYYCQQSDSPPYTFGQGTKLEIK
binding result [13]: binds | binding result [14]: binds

B3: anti-TPBG antibody 097, Fab fragment (Fab, V domains shown)
VH: EVQLLESGGGLAQPGGSLRLSCAASGFTFNNDAMTWVRQAPGKGLEWVSAISGSGGSTYYADSVKGRFTISRDNSKNTLYLQMNSLRAEDTAVYYCAKGGSWGDWYYYFYPMDVWGQGTTVTVSS
VL: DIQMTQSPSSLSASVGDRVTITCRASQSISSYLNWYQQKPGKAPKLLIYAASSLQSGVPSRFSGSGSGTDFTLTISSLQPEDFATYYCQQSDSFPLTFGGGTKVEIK
notes: also called Fab4
Fold change pH 7.2 vs pH 5.5 [1]: 1.2 fold | EC50 cytotoxicity, Fab-PE sandwich construct, MCF7 [2]: 0.935 nM | X-fold higher potency compared to TPBG(H8)PE, MCF7, first experiment [2]: 1.3 fold | X-fold higher potency compared to TPBG(H8)PE, MCF7, second experiment [2]: 2.4 fold | Kd [3]: 1.35 nM | koff [3]: 0.000254 s⁻¹ | kon [3]: 189000 M⁻¹ s⁻¹ | Kd [4]: 0.82 nM | koff [4]: 0.000814 s⁻¹ | kon [4]: 993000 M⁻¹ s⁻¹ | EC50 [5]: 0.0152 µg/mL | EC50 [6]: 0.0436 µg/mL | Fold change pH 7.2 vs pH 5.5 [7]: 1.2 fold | EC50 cytotoxicity, Fab-PE sandwich construct, H1975, replicate 1 [8]: 0.826 nM | EC50 cytotoxicity, Fab-PE sandwich construct, H1975, replicate 2 [8]: 0.656 nM | EC50 cytotoxicity, Fab-PE sandwich construct, H1975, replicate 3 [8]: 0.706 nM | EC50 [9]: 0.451 µg/mL | internalization after 0.5 h, MCF7 cells [10]: 28% | internalization after 1.0 h, MCF7 cells [10]: 42% | internalization after 2.0 h, MCF7 cells [10]: 61% | EC50 cytotoxicity, Fab + anti-kappa-Fab-PE, CHO-K1/human TPBG, replicate 1 [11]: 0.3 nM | EC50 cytotoxicity, Fab + anti-kappa-Fab-PE, CHO-K1/human TPBG, replicate 2 [11]: 0.33 nM | EC50 cytotoxicity, Fab + anti-kappa-Fab-PE, CHO-K1/minipig TPBG, replicate 1 [12]: 2.08 nM | EC50 cytotoxicity, Fab + anti-kappa-Fab-PE, CHO-K1/minipig TPBG, replicate 2 [12]: 2.15 nM
